Measurements reported in patent publication US20180111972A1 (Stanford University, published 2018).

T1: scPDGF, yeast-displayed (human)
T1 chain: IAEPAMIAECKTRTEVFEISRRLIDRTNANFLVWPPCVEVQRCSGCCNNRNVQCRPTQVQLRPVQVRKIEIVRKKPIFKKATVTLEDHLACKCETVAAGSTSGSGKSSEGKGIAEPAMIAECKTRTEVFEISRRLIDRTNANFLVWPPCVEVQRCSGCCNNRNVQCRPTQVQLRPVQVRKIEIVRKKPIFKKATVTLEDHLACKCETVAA

B1: PDGFRβ-His (residues 1-314 of PDGFR-β with C-terminal hexahistidine tag) (receptor)
chain: LVVTPPGPELVLNVSSTFVLTCSGSAPVVWERMSQEPPQEMAKAQDGTFSSVLTLTNLTGLDTGEYFCTHNDSRGLETDERKRLYIFVPDPTVGFLPNDAEELFIFLTEITEITIPCRVTDPQLVVTLHEKKGDVALPVPYDHQRGFSGIFEDRSYICKTTIGDREVDSDAYYVYRLQVSSINVSVNAVQTVVRQGENITLMCIVIGNEVVNFEWTYPRKESGRLVEPVTDFLLDMPYHIRSILHIPSAELEDSGTYTCNVTESVNDHQDEKAINITVVESGHHHHHH
notes: range 1-314; Monovalent form, expressed in FreeStyle 293-F cells; also called PDGRβ-His; PDGFR-His
B2: PDGFRβ-Fc (residues 1-314 of PDGFR-β fused to the Fc region of mouse IgG2a) (Fc fusion)
chain: LVVTPPGPELVLNVSSTFVLTCSGSAPVVWERMSQEPPQEMAKAQDGTFSSVLTLTNLTGLDTGEYFCTHNDSRGLETDERKRLYIFVPDPTVGFLPNDAEELFIFLTEITEITIPCRVTDPQLVVTLHEKKGDVALPVPYDHQRGFSGIFEDRSYICKTTIGDREVDSDAYYVYRLQVSSINVSVNAVQTVVRQGENITLMCIVIGNEVVNFEWTYPRKESGRLVEPVTDFLLDMPYHIRSILHIPSAELEDSGTYTCNVTESVNDHQDEKAINITVVESG
notes: range 1-314; Expressed in FreeStyle 293-F cells; also called PDGRβ-Fc; PDGFR-Fc; not shown: Fc region of mouse IgG2a
B3: scPDGF, single-chain version of wild-type PDGF-BB, soluble, FLAG and hexahistidine tags (ligand)
chain: T1 chain
B4: PVRF (PV6 with K87R and I182F), yeast-displayed (designed binder)
chain: IAEPAMIAECHPIETLVDIFQEYPDEIEYIFKPSCVPLMRCGGCCNNRNVQCRPTEESNITMQIMRIKPHQGQHIGEMSFLQHNKCRCETVAAGSTSGSGKSSEGKGEVVKFMDVYQRSYCKTRTEVFEISRRLIDRTNANFLVWPPCVEVQRCSGCCNDEGLECVPTQVQLRPVQVRKIEFVRKKPIFKKATVTLEDHLACECRPKKD

Key:
scPDGF, yeast-displayed [1] = target: T1, scPDGF, yeast-displayed; test: yeast surface display of scPDGF, flow cytometry titration of PDGFRβ-His, anti-His detection
Procedure: (§1) Cells were incubated in large enough volumes to avoid ligand depletion and appropriate time to reach equilibrium. During the last hour of incubation, yeast were incubated with 1:250 dilution of chicken anti-c-Myc (Invitrogen) in PBSA. […] Yeast were washed, pelleted, and resuspended in PBSA immediately before analysis by flow cytometry using BD FACSCalibur or BD Accuri C6. Flow cytometry data were analyzed using FlowJo (v7.6.1 and v10, Treestar) or BD Accuri C6 software. Statistical analysis was performed using GraphPad Prism 6.
(§2) Bound protein was detected using fluorescently-labeled anti-His and anti-mouse-Fc antibodies.

[2] = target: B3; test: cell-based or functional assay
scPDGF, yeast-displayed [3] = target: T1, scPDGF, yeast-displayed; test: yeast surface display of scPDGF, flow cytometry titration of PDGFRβ-Fc, anti-mouse-Fc detection
Procedure: as §1, §2

[4] = target: PDGFRβ on DiscoveRx PathHunter U2OS PDGFRβ reporter cells (UniProt P09619 33-1106, limits assumed); test: cell-based or functional assay
[5] = target: B1; test: KinExA, equilibrium titration in solution, n-curve analysis
Procedure: For KinExA measurements, a constant amount of PDGF/VEGF ligand is titrated with differing concentrations of PDGRβ-His or VEGFR2-His. The solutions are incubated for an appropriate amount of time to allow the ligand-receptor binding reaction to reach equilibrium. The solution is then briefly exposed to a solid support containing immobilized PDGFR or VEGFR, which captures unbound ligand. The amount of ligand bound to the solid support is then detected using a fluorescently-labeled antibody. […] For each binding interaction measured, curves for two concentrations of the constant ligand are performed. By performing two experiments with fixed ligand concentrations above and below the Kd, and fitting both sets of data with a nonlinear regression analysis, a more accurate measurement for the affinity can be obtained.
Kinetic Exclusion Assay (KinExA). All experiments were performed on a KinExA 3200 instrument with siliconized flow cell (Sapidyne Instruments Inc). […] 30 μg of receptor was incubated in 1 ml of 50 mM sodium bicarbonate, 0.5 M sodium citrate buffer, pH 8.3, for 2 hr at room temperature with rocking. Beads were allowed to settle by gravity and liquid removed. Beads were blocked by incubating in 1 ml of 10 mg/ml BSA in 1 M Tris buffer, pH 8.0, for 1 hr at room temperature with rocking, and stored in blocking buffer at 4° C. for up to one week until use. Running buffer contained PBS with 10 mM imidazole and 0.02% sodium azide. Samples were prepared in running buffer with 1 mg/ml BSA. Binding reactions were prepared with a fixed concentration of PDGF/VEGF ligands and dilution series of PDGFR or VEGFR. Captured PDGF/VEGF ligands were detected using a Dylight 649-conjugated anti-FLAG antibody (Rockland) at 1:1000 dilution in sample buffer. Kinetic experiments were performed with the “Kinetics Injection” method defined in the KinExA software. Data were analyzed with KinExA Pro Software.

[6] = target: B1; test: KinExA; calculated, could not be accurately determined because of the fast equilibrium time
[7] = target: B1; test: KinExA Kinetics Injection; could not be accurately determined because of the fast equilibrium time
[8] = target: B1; test: yeast surface display titration, flow cytometry
Procedure: as §1

[9] = target: B1; test: yeast surface display, flow cytometry titration of PDGFRβ-His (panel 'PDGFRβ binding')
Procedure: as §1

[10] = target: T2, soluble PDGFRβ (Fc or His format not stated for the experiment) (human, UniProt P09619 33-532); test: yeast surface display titration; table under the panel 'PDGFR binding', Fc or His form not given
T2 construct: extracellular domain

VEGFR2-Fc (R&D Systems) = target: T3, VEGFR2-Fc (R&D Systems) (human, UniProt P35968 20-764); test: yeast surface display, flow cytometry: VEGFR2-Fc bound, with and without pre-incubation with 100 nM PDGFRβ-Fc
T3 construct: extracellular domain; Bought reagent; also called VEGFR-Fc; not shown: Fc part, detected with anti-human-IgG (Fc specific)
T3 sequence (P35968 20-764): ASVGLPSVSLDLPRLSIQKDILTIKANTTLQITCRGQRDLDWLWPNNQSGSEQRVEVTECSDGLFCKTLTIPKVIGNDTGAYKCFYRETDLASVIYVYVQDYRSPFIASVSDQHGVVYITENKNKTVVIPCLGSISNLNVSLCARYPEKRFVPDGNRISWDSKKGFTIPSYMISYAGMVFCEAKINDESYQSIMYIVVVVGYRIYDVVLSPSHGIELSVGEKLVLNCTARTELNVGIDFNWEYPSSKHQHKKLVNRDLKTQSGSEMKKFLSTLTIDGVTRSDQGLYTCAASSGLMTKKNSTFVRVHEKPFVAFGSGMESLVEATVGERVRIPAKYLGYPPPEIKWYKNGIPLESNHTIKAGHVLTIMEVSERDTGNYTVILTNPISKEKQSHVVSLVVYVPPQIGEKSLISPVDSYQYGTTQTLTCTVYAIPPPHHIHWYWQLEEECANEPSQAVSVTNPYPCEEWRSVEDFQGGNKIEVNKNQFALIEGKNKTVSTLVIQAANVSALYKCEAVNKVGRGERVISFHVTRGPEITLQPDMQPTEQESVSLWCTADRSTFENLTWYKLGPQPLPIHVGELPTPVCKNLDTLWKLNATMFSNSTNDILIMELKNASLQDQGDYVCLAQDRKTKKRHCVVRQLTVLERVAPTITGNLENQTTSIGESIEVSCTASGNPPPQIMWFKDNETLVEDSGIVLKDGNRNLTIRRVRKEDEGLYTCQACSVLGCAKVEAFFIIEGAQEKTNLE
Procedure: as §1

[11] = target: T2, soluble PDGFRβ (Fc or His format not …); test: yeast surface display, flow cytometry titration of soluble receptor; panel 'PDGFR binding', Fc or His form not given

B1
EC50 (read off the curve) (scPDGF, yeast-displayed [1]): ~300000 pM

B2
IC50 of inhibition of NIH/3T3 proliferation stimulated by scPDGF, alamarBlue [2]: 8700 pM
IC50 of inhibition of stimulation by 100 pM scPDGF, PathHunter reporter cells [2]: 130 pM
EC50 (read off the curve) (scPDGF, yeast-displayed [3]): ~30 pM

B3
EC50 of receptor activation, DiscoveRx PathHunter PDGFR reporter cells, chemiluminescence [4]: 140 pM
Kd [5]: 18000 pM
koff [6]: > 0.31 s⁻¹
kon [7]: > 1.7e+07 M⁻¹ s⁻¹

B4
Kd [8]: 370 pM
EC50 (read off the curve) [9]: ~300 pM
Kd [10]: 240 pM
binding result (VEGFR2-Fc (R&D Systems)): binds
EC50 (read off the curve) [11]: ~200 pM
